Source: US20150344548A1

Tests used:
[1] = molecular target: Staphylococcus aureus protein A (SpA) in the cell wall of SA bacteria (strain ATCC #25923 and clinical isolate 00X) (Staphylococcus aureus); experiment: flow cytometry: SA strain ATCC #25923 incubated with biotinylated MABp1 (negative control), then streptavidin-APC; mean fluorescence FL4-H from the table beside the histogram (bottom panel)
[2] = molecular target: Staphylococcus aureus protein A (SpA) in the cell wall of SA bacteria (strain ATCC #25923 and clinical isolate 00X) (Staphylococcus aureus); experiment: flow cytometry: SA clinical isolate 00X incubated with biotinylated MABp1 (negative control), then streptavidin-APC; mean fluorescence FL4-H from the table beside the histogram (top panel)
[3] = molecular target: Staphylococcus aureus protein A (SpA) in the cell wall of SA bacteria (strain ATCC #25923 and clinical isolate 00X) (Staphylococcus aureus); experiment: flow cytometry: SA strain ATCC #25923 by the legend (printed on the sheet as 25935) pre-incubated with human sera for 15 minutes, then biotinylated MABp1-IgG3 (isotype-matched negative control), then streptavidin-APC (bottom panel)
[4] = molecular target: Staphylococcus aureus protein A (SpA) in the cell wall of SA bacteria (strain ATCC #25923 and clinical isolate 00X) (Staphylococcus aureus); experiment: flow cytometry: SA clinical isolate 00X pre-incubated with human sera for 15 minutes, then biotinylated MABp1-IgG3 (isotype-matched negative control), then streptavidin-APC (top panel)

Row | Substance | Mean:FL4-H [1] | Mean:FL4-H [2] | Mean:FL4-H [3] | Mean:FL4-H [4]
1 | MABp1-IgG1 (antibody) | 46.7 | 29.8 | – | –
2 | MABp1-IgG3 (antibody) | – | – | 10.3 | 19.1
